Data from paper PMC5039030, “DPP9 is a novel component of the N-end rule pathway targeting the tyrosine kinase Syk” (eLife, 2016).

How the values were obtained:
[1] = target: T1, recombinant DPP9-short (His-tagged DPP9 wild type) (UniProt Q86TI2 1-863); assay: SPR; His-tagged DPP9 captured on a Ni2+ chelator chip (2500 to 3500 µRIU); peptide injected at 16 µM to 0.125 µM (Syk 1–31) or 32 µM to 1 µM (Syk 3–31); 20 mM Hepes, 150 mM NaCl, 0.005% Tween 20, 50 µM EDTA, pH 7.4; 40 µl/min; equilibrium binding analysis; conditions: both partners purified
T1 construct: DPP9, short isoform (DPP9-short); The His tag is named only for the SPR experiment; also called DPP9 wt; dipeptidylpeptidase 9
T1 sequence (Q86TI2 whole entry, canonical isoform): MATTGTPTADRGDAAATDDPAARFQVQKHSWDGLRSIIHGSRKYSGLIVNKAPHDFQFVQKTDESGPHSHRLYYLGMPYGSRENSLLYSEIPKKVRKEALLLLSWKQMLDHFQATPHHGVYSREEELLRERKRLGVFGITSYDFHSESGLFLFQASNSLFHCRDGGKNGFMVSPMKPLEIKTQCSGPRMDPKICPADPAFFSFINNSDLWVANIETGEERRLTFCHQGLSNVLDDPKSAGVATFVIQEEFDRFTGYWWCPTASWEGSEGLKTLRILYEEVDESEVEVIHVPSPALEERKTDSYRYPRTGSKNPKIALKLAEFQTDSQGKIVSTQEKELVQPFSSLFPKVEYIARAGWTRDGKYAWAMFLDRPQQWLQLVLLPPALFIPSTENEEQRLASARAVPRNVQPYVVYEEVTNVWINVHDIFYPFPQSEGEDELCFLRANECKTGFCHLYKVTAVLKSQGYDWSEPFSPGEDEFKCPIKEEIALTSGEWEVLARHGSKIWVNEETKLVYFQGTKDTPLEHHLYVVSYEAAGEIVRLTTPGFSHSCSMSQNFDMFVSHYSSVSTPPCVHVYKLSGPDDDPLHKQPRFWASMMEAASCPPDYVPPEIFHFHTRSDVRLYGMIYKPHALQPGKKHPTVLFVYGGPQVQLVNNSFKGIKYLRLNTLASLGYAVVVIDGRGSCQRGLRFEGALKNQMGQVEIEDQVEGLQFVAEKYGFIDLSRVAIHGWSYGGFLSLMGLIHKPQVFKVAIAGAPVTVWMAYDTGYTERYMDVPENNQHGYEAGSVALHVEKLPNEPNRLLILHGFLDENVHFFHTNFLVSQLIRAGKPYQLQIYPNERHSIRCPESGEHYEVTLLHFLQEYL

[2] = target: T2, DPP9 S730G (inactive DPP9 variant) (UniProt Q86TI2 1-863, S730G); assay: as above; conditions: both partners purified
T2 construct: DPP9 with the active-site serine mutated to glycine; Parent construct is surmised to be DPP9-short as in m1; source: recombinant
T2 sequence (Q86TI2 whole entry S730G): as the sequence (Q86TI2 whole entry, canonical isoform) above, with S730G counted along it

B1: synthetic Syk (1–31) peptide covering the first 31 amino acids of full-length Syk (peptide)
peptide: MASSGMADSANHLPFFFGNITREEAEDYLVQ
notes: tyrosine kinase Syk, residues 1–31; also called Syk N-terminus peptide (1–31); Syk amino terminus peptide 1–31; source: synthetic peptide (custom-made by GenScript, >80% purity)
**Q.** Which Kd [1] does the source give for B1 here?
**A.** 52 µM

**Q.** And the Kd [2]?
**A.** 284 µM

B2: Syk△MA (3–31) peptide (peptide)
peptide: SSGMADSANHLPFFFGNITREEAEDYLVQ
notes: tyrosine kinase Syk, residues 3–31; also called Syk (3–31); source: synthetic peptide (custom-made by GenScript, >80% purity)
**Q.** For B2, which Kd [1] is on record?
**A.** 156 µM
